Read-outs that look alike come from different tables or passages of the source.
T1: FadR WT (native, crystal) (Bacillus halodurans, UniProt Q9K8A4 1-195)
T1 sequence: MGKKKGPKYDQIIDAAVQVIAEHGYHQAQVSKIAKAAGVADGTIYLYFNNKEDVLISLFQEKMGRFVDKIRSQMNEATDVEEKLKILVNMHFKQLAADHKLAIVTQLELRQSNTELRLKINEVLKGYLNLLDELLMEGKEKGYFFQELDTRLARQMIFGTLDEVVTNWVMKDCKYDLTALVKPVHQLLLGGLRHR


Legend:
[1] = molecular target: Bacillus halodurans FadR (native) (Bacillus halodurans); experiment: crystal structure
[2] = molecular target: Bacillus halodurans FadR (native) (Bacillus halodurans); experiment: crystal structure; remark: listed apart in the source
[3] = molecular target: T1, FadR WT (native, crystal); experiment: X-ray crystallography

Row | Molecule | stoichiometry N [1] | stoichiometry N [2] | binding result [3]
1 | Bacillus halodurans FadR (native) (natural protein) | 2 | 2 | 
2 | 21OH fadR promoter (dsDNA) DNA 1: GATGAATGAATACTCATTCAT DNA 2: CATGAATGAGTATTCATTCAT |  |  | binds

Source: paper PMC5397183
